The results in this text go back to patent US20240358847A1 (Merck Sharp & Dohme, published 2024).

Substitutions are numbered along the chain they refer to.

T1: TROP2 on BxPC-3 and MDA-MB-231-KWL cells (human, UniProt P09758 27-323)
T1 construct: whole, on cells
T1 sequence (looked up): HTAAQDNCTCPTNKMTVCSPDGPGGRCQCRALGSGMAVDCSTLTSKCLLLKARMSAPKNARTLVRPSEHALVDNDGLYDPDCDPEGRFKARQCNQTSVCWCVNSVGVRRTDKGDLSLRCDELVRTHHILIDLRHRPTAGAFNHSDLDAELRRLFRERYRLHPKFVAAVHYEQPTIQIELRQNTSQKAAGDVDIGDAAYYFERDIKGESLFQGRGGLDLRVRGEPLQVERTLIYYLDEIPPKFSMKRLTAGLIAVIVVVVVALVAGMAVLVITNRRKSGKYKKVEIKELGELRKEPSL

B1: mAb_LC_Hm_W106A (antibody, human IgG1, kappa)
heavy: not shown
light: DIQLTQSPSSLSASVGDRVSITCKASQDVSIAVAWYQQKPGKAPKLLIYSASYRYTGVPDRFSGSGSGTDFTLTISSLQPEDFAVYYCQQHYITPLTFGAGTKVEIKRTVAAPSVFIFPPSDEQLKSGTASVVCLLNNFYPREAKVQWKVDNALQSGNSQESVTEQDSKDSTYSLSSTLTLSKADYEKHKVYACEVTHQGLSSPVTKSFNRGEC
B2: mAb_LC_Hm_Y105S (antibody, human IgG1, kappa)
heavy: not shown
light: B1 light
B3: mAb_LC_Hm_Y32E (antibody, human IgG1, kappa)
heavy: not shown
light: B1 light
B4: mAb_LC_Hm_Y107I (antibody, human IgG1, kappa)
heavy: not shown
light: B1 light
B5: mAb_LC_Hm_W106L (antibody, human IgG1, kappa)
heavy: not shown
light: B1 light
B6: mAb_Lm_I93G_HC (antibody, human IgG1, kappa)
heavy: not shown
light: B1 light with I93G
B7: mAb_Lm_H91K_HC (antibody, human IgG1, kappa)
heavy: not shown
light: B1 light with H91K
B8: mAb_Lm_Q89V_HC (antibody, human IgG1, kappa)
heavy: not shown
light: B1 light with Q89V
B9: mAb_Lm_A32Q_HC (antibody, human IgG1, kappa)
heavy: not shown
light: B1 light with A32Q
B10: mAb_Lm_D28H_HC (antibody, human IgG1, kappa)
heavy: not shown
light: B1 light with D28H
B11: mAb_Lm_S30R_HC (antibody, human IgG1, kappa)
heavy: not shown
light: B1 light with S30R
B12: mAb_Lm_A32P_HC (antibody, human IgG1, kappa)
heavy: not shown
light: B1 light with A32P
B13: mAb_LC_Hm_W106E (antibody, human IgG1, kappa)
heavy: not shown
light: B1 light
B14: mAb_LC_Hm_Y107N (antibody, human IgG1, kappa)
heavy: not shown
light: B1 light

One assay concerns the target T1, TROP2 on BxPC-3 and MDA-MB-231-KWL cells. As to the kind of experiment: on-cell ELISA, MDA-MB-231-KWL cells (TROP2 low). Further details: unit not given beside the values. The method, then:
(§1) Cells were plated in duplicate onto 96-well plates, and primary antibody was diluted in cell culture medium with a starting concentration of 30 μg/mL (200 nM) with a dilution factor of 1:5. […] Data was plotted and analyzed. EC50 ([…]) was measured along with area under the curve (AUC) for each cell line.
A general note: An ELISA detects its analyte on a solid surface through an enzyme-linked reagent.
On to B1, for which the “AUC (MDA-MB-231-KWL)” value was 28.7.

Consider B2, for which the “AUC (MDA-MB-231-KWL)” value is 80.

Consider B3, for which the “AUC (MDA-MB-231-KWL)” value is 193.

Regarding B4, the “AUC (MDA-MB-231-KWL)” value is 163.

In the case of B5, the “AUC (MDA-MB-231-KWL)” value was found to be 60.9.

Turning to B6, the “AUC (MDA-MB-231-KWL)” value is 220.

As to B7, the “AUC (MDA-MB-231-KWL)” value turned out to be 162.

Regarding B8, the “AUC (MDA-MB-231-KWL)” value is 201.

As to B9, the “AUC (MDA-MB-231-KWL)” value is 17.8.

As for B10, the “AUC (MDA-MB-231-KWL)” value was 214.

Consider B11, for which the “AUC (MDA-MB-231-KWL)” value is 47.1.

Take B12: the “AUC (MDA-MB-231-KWL)” value came out at 64.3.

As to B13, the “AUC (MDA-MB-231-KWL)” value was found to be 22.2.

Turning to B14, the “AUC (MDA-MB-231-KWL)” value was found to be 230.

The next assay shares this target. In words: on-cell ELISA, BxPC-3 vs MDA-MB-231-KWL cells. Here is the method:
as §1
For the molecule B1, the ΔAUC came to 186.

Consider B2, for which the ΔAUC is 188.

The molecule B3 registered a ΔAUC of 104.

Molecule B4 showed a ΔAUC of 101.

For B5, the ΔAUC amounted to 191.

Take B6: the ΔAUC worked out at 85.3.

Molecule B7 had a ΔAUC of 132.

B8: the ΔAUC worked out at 98.1.

In turn, B9 yielded a ΔAUC of 124.

The molecule B10 came in with a ΔAUC of 86.6.

Molecule B11 gave a ΔAUC of 169.

Molecule B12 came in with a ΔAUC of 192.

Molecule B13 came in with a ΔAUC of 117.

B14 registered a ΔAUC of 86.5.

The next assay has the same target. In words: on-cell ELISA, BxPC-3 cells (TROP2 high). Further details: unit not given beside the values. The method, then:
as §1
Turning to B1, the “AUC (BxPC-3)” value was 215.

Consider B2, for which the “AUC (BxPC-3)” value is 268.

In the case of B3, the “AUC (BxPC-3)” value stood at 298.

Turning to B4, the “AUC (BxPC-3)” value came to 265.

Consider B5, for which the “AUC (BxPC-3)” value was 251.

On to B6, for which the “AUC (BxPC-3)” value turned out to be 305.

In the case of B7, the “AUC (BxPC-3)” value came to 294.

B8: the “AUC (BxPC-3)” value came to 299.

For the molecule B9, the “AUC (BxPC-3)” value was 142.

Take B10: the “AUC (BxPC-3)” value was 300.

Take B11: the “AUC (BxPC-3)” value worked out at 216.

B12: the “AUC (BxPC-3)” value was 256.

As for B13, the “AUC (BxPC-3)” value was determined as 140.

For B14, the “AUC (BxPC-3)” value was 317.
